39 variants from the RNAGym collection of RNA variant scans (doi:10.7554/elife.80360) can be followed below.

The labels stand for the following.
B1: CPEB3 Ribozyme (parent)
chain: GGGGGCCACAGCAGAAGCGUUCACGUCGCGGCCCCUGUCAGAUUCUGGUGAAUCUGCGAAUUCUGCUGU

Variants of B1 are the subject of the data set. Put plainly: self-cleavage, relative activity (ratio to wild type); higher = more cleavage; co-transcriptional.
On to GGGGGCGACAGAAGAAGCGUUCACGUCGCGGCCCCUGUCAGAUUCUGGUGAAUCUGCGAAUUCUGCUGU [C7G C12A], for which the self-cleavage was 0.0557.

GGGGGCGACAGGAGAAGCGUUCACGUCGCGGCCCCUGUCAGAUUCUGGUGAAUCUGCGAAUUCUGCUGU [C7G C12G]: the self-cleavage stood at 0.223.

For GGGGGCGACAGUAGAAGCGUUCACGUCGCGGCCCCUGUCAGAUUCUGGUGAAUCUGCGAAUUCUGCUGU [C7G C12U], the self-cleavage is 0.383.

As to GGGGGCAACAGCAGAAGCGUUCACGUCGCGGCCCCUGUCAGAUACUGGUGAAUCUGCGAAUUCUGCUGU [C7A U44A], the self-cleavage turned out to be 0.447.

Take GGGGGCAACAGCAGAAGCGUUCACGUCGCGGCCCCUGUCAGAUUCUGGUGAAUCUGCGAAUUCUGCUCU [C7A G68C]: the self-cleavage was 0.923.

Turning to GGGGGCGACAGCAGAAGCGUUCACGUCGCGGCCCCUGUCAGAUUCUGGUGAAUCUGAGAAUUCUGCUGU [C7G C57A], the self-cleavage was determined as 0.146.

Regarding GGGGGCAACAGCAGAAGCGUUCACGUCGCGGCCCCUGUCAGAUUCUGGUGAAUCUUCGAAUUCUGCUGU [C7A G56U], the self-cleavage stood at 0.357.

GGGGGCGAUAGCAGAAGCGUUCACGUCGCGGCCCCUGUCAGAUUCUGGUGAAUCUGCGAAUUCUGCUGU [C7G C9U]: the self-cleavage was 0.844.

Consider GGGGGCGACAGCAGAAGCGUUCACGUCGCGGCCCCUGUCAGAUUCUCGUGAAUCUGCGAAUUCUGCUGU [C7G G47C], for which the self-cleavage amounted to 0.604.

In the case of GGGGGCAACAGCAGAAGCGUUCACGUCGCGGCCCCUGUCAGAUUCUGGUGAAUCUGCCAAUUCUGCUGU [C7A G58C], the self-cleavage is 0.464.

Consider GGGGGCGACAGCAGAAGCGUUCACGUCGCGGCCCCUGUCCGAUUCUGGUGAAUCUGCGAAUUCUGCUGU [C7G A40C], for which the self-cleavage turned out to be 0.17.

GGGGGCGACAGCAGAAGCGUUCACGUCGCGGCCCCUGUCAAAUUCUGGUGAAUCUGCGAAUUCUGCUGU [C7G G41A]: the self-cleavage amounted to 0.131.

On to GGGGGCGACAGCAGAAGCGUUCACGUCGCGGCCCCUGUCACAUUCUGGUGAAUCUGCGAAUUCUGCUGU [C7G G41C], for which the self-cleavage was found to be 0.121.

Take GGGGGCGACAGCAGAAGCGUUCACGUCGCGGCCCCUGUCAGAUUCUGGUGAGUCUGCGAAUUCUGCUGU [C7G A52G]: the self-cleavage is 0.38.

For GGGGGCGACAGCAGAAGCGUUCACGUCGCGGCUCCUGUCAGAUUCUGGUGAAUCUGCGAAUUCUGCUGU [C7G C33U], the self-cleavage came to 0.253.

GGGGGCAACAGCAGAAGCGUUCACGUCGCGGCCCCUGUCAGAUUCUGGUGAACCUGCGAAUUCUGCUGU [C7A U53C]: the self-cleavage was found to be 0.274.

With GGGGGCAACAGCAGAAGCGUUCACGUCGCGGCCCCUGUCAGAUUCUGGUGAAACUGCGAAUUCUGCUGU [C7A U53A], the self-cleavage was determined as 0.321.

For GGGGGCGACAGCAAAAGCGUUCACGUCGCGGCCCCUGUCAGAUUCUGGUGAAUCUGCGAAUUCUGCUGU [C7G G14A], the self-cleavage amounted to 0.0844.

Regarding GGGGGCGACAGCAGAAGCGUUCACGUCGGGGCCCCUGUCAGAUUCUGGUGAAUCUGCGAAUUCUGCUGU [C7G C29G], the self-cleavage was determined as 0.125.

GGGGGCGACAGCAGAAGCGUUCACGUCGUGGCCCCUGUCAGAUUCUGGUGAAUCUGCGAAUUCUGCUGU [C7G C29U]: the self-cleavage worked out at 0.0696.

As to GGGGGCGACAGCAGAAGCGUUCACGUCGAGGCCCCUGUCAGAUUCUGGUGAAUCUGCGAAUUCUGCUGU [C7G C29A], the self-cleavage was 0.102.

GGGGGCAACAGCAGAAGCGUUCACGUCGCGGCCCCUGUCAGAUUCUGGUGAAUCUGCGAAUUCUGCAGU [C7A U67A]: the self-cleavage is 0.884.

For the variant GGGGGCAACAGCAGAAGCGUUCACGUCGCGGCCCCUGUCAGAUUCUGGUGAAUCUGCGAAUUCUGCGGU [C7A U67G], the self-cleavage was found to be 0.858.

For GGGGGCAACAGCAGAAGCGUUCACGUCGCGGCCCCUGUCAGAUUCUGGUGAAUCUGCGAAUUGUGCUGU [C7A C63G], the self-cleavage amounted to 0.303.

Consider GGGGGCAACAGCAGAAGCGUUCACGUCGCGGCCCCUGUCAGAUUCUGGUGAAUCUGCGAAUUAUGCUGU [C7A C63A], for which the self-cleavage is 0.149.

Take GGGGGCGACAGCAGAAGCGUUCAAGUCGCGGCCCCUGUCAGAUUCUGGUGAAUCUGCGAAUUCUGCUGU [C7G C24A]: the self-cleavage was determined as 0.0945.

For the variant GGGGGCAACAGCAGAAGCGUUCACGUCGCGGCCCCUGUCAGAUUCAGGUGAAUCUGCGAAUUCUGCUGU [C7A U46A], the self-cleavage was found to be 0.6.

In the case of GGGGGCGACAGCAGAAGCGUUCACGUCGCGGACCCUGUCAGAUUCUGGUGAAUCUGCGAAUUCUGCUGU [C7G C32A], the self-cleavage was 0.0649.

Take GGGGGCGACAGCAGAAGCGUUCACGUCACGGCCCCUGUCAGAUUCUGGUGAAUCUGCGAAUUCUGCUGU [C7G G28A]: the self-cleavage is 0.0296.

GGGGGCGACAGCAGAAGCGUUCACGUCCCGGCCCCUGUCAGAUUCUGGUGAAUCUGCGAAUUCUGCUGU [C7G G28C]: the self-cleavage came to 0.106.

Consider GGGGGCGACAGCCGAAGCGUUCACGUCGCGGCCCCUGUCAGAUUCUGGUGAAUCUGCGAAUUCUGCUGU [C7G A13C], for which the self-cleavage was 0.285.

Take GGGGGCGACAGCAGAAGCGUUCACGUAGCGGCCCCUGUCAGAUUCUGGUGAAUCUGCGAAUUCUGCUGU [C7G C27A]: the self-cleavage came out at 0.11.

For the variant GGGGGCAACAGCAGAAGCGUUCACGUCGCGGCCCCUGUCAUAUUCUGGUGAAUCUGCGAAUUCUGCUGU [C7A G41U], the self-cleavage is 0.214.

GGGGGCAACAGCAGAAGCGUUCACGUCGCGGCCCCUGUCAAAUUCUGGUGAAUCUGCGAAUUCUGCUGU [C7A G41A]: the self-cleavage was 0.255.

On to GGGGGCGACAGCAGUAGCGUUCACGUCGCGGCCCCUGUCAGAUUCUGGUGAAUCUGCGAAUUCUGCUGU [C7G A15U], for which the self-cleavage was 0.0664.

Turning to GGGGGCGACAGCAGAAGCGUUCACGUCGCGGCCCCUUUCAGAUUCUGGUGAAUCUGCGAAUUCUGCUGU [C7G G37U], the self-cleavage was found to be 0.179.

On to GGGGGCGACAGCAGAAGCGUUCACGUCGCGGCCCCUAUCAGAUUCUGGUGAAUCUGCGAAUUCUGCUGU [C7G G37A], for which the self-cleavage turned out to be 0.153.

With GGGGGCGACAGCAGAAGCGUUCACGUCGCGGCCCCUCUCAGAUUCUGGUGAAUCUGCGAAUUCUGCUGU [C7G G37C], the self-cleavage turned out to be 0.118.

In the case of GGGGGCGACAGCAGAAGCGUUCACGUCGCGGCCCCUGUCAGUUUCUGGUGAAUCUGCGAAUUCUGCUGU [C7G A42U], the self-cleavage stood at 0.303.
